Blank lines part the entries; values can stand above or below the molecule they belong to.
Key:
[1] = tested on: PGE2 / human EP4 receptor in HEK293 Gα16 cells; experiment: EP4 bioassay (Ca++ flux, neutralization of PGE2); format: cell-based
Outline: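 Ca++ flux (FLIPR) in HEK293 Gα16 cells stably expressing human EP4, loaded with Ca++-sensitive dye for 90 min. PGE2, alone or pre-incubated with anti-PGE2 antibody, DVD-Ig or isotype control, was added in FLIPR buffer (HBSS, 20 mM HEPES, 0.1% BSA, 2.5 mM probenecid). EC50 derived from PGE2 dose-response.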

desired target antigen = experiment: Direct Bind ELISA of parent antibodies and DVD-Ig constructs; format: binding; details: C-terminal variable domain NGF, read-out: Direct Bind ELISA C-terminal VD EC50
Description: Enzyme Linked Immunosorbent Assays to screen for antibodies that bind a desired target antigen were performed as follows. […] Plates were washed four times with PBS containing 0.02% Tween 20. Plates were blocked by the addition of 300 μL/well blocking solution (non-fat dry milk powder, various retail suppliers, diluted to 2% in PBS) for ½ hour at room temperature. Plates were washed four times after blocking with PBS containing 0.02% Tween 20.
Wells were washed four times with PBS containing 0.02% Tween 20.
One hundred microliters of antibody or DVD-Ig preparations diluted in blocking solution as described above was added to the desired target antigen plate or desired target antigen/FC fusion plate or the anti-polyHistidine antibody/His tagged desired target antigen plate prepared as described above and incubated for 1 hour at room temperature.
Plates were washed 4 times with PBS containing 0.02% Tween 20.
One hundred microliters of enhanced TMB solution (Neogen Corp. #308177, K Blue, Lexington, Ky.) was added to each well and incubated for 10 minutes at room temperature. The reaction was stopped by the addition of 50 μL 1N sulphuric acid. Plates were read spectrophotometrically at a wavelength of 450 nm.

[2] = PGE2-biotinamide ELISA (PGE2 binding); details: PGE2 VD in N-terminal position, read-out: Direct Bind ELISA N-terminal VD EC50
Outline: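 Antibody or DVD-Ig (1 µg/ml) captured on anti-host Fc IgG-coated plates for 1 h at room temperature, then titrated with PGE2-biotinamide serially diluted from 30 nM for 1 h. Binding detected with streptavidin-polyHRP and TMB, absorbance read at 450 nm; EC50 from the titration curve.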

[3] = 3H-PGE2 ELISA (PGE2 binding affinity)
Description: Alternatively, prostaglandin binding screen for antibodies or DVD-Ig molecules can be determined using a ^3H-PGE2 ELISA. Plates were coated at 50 μl/well with 5 μg/ml of goat anti-human IgG (Fc) (Thermo Scientific #31170, Hudson, N.H.) or goat anti-mouse IgG (Fc) (Thermo Scientific #31125, Hudson, N.H.) in PBS and incubated overnight at 4° C. The following day plates were flicked and blotted dry. Plates were then blocked with 200 μL/well of Superblock (Thermo Scientific #37515, Hudson, N.H.), for 1 hour at room temperature. Plates were flicked and blotted dry. Monoclonal antibodies were diluted to 0.04 μg/ml in PBST (Abbott Bioresearch Center, Worcester, Mass.)/10% Superblock and 50 uL of each antibody or DVD-Ig was added to each well of the pre-blocked ELISA plate at 2 ng/well and incubated for 1 hour at room temperature. Wells were washed 3 times with PBS+0.1% Tween-20. A serial 3 fold titration of ^3H-PGE2 (Perkin Elmer #NET-428, Waltham, Mass.) was prepared in PBST+10% Superblock. Fifty microliters of the ^3H-PGE2 solution was then added to each well of the plate and incubated for 1 hour at room temperature. Wells were washed 6 times with PBST+10% Superblock and 50 μL of scintillation fluid (Perkin Elmer #6013621, Waltham, Mass.) added to each well. Plates were read using the TopCount reader (Perkin Elmer, Waltham, Mass.) with a 5 minutes count delay. EC50 number was determined using GraphPad Prism 5 (GraphPad Software, La Jolla, Calif.).

[4] = tested on: C57.BL/6 mice, carrageenan-induced footpad edema; experiment: Carrageenan-induced footpad edema model; format: in vivo, mouse; details: 10 mg/kg
Description: Carrageenan-Induced Footpad Edema is an acute rodent model of innate immune function. Intradermal (ID) injection of an inflammatory agent causes a rapid influx of neutrophils and fluid edema, which peaks at approximately 4 hours, followed by an influx of macrophages and monocytes, which peaks at approximately 48 hours. C57.BL/6 mice (8-10-week-old, Jackson Laboratories, Bar Harbor, Me.) were injected ID in the rear footpad with 30 μL of either PBS (left) or λ-carrageenen (Sigma Aldrich, St. Louis, Mo.) in PBS (right) at a concentration of 5.0 mg/mL (150 μg/mouse). […] Significant difference for paw thickness was determined by comparing mean paw swelling for each treatment group to vehicle in a Student's two-tailed t-test.
The endpoint measured was the difference in paw swelling (edema) between right and left paws 4 hours after treatment.

[5] = tested on: human TNFα transgenic B6.Cg(SJL)-Tg(TNF) N21+ mice; experiment: Human TNFα transgenic induced arthritis model; format: in vivo, mouse; details: PGE2 blockade
Description: Human TNFα transgenic B6.Cg(SJL)-Tg(TNF) N21+ mice (40 male and 40 females) (Taconic, Hudson, N.Y.) at 4 weeks age were divided into 10 groups of 8 mice (4 male and 4 females/group). Each week, starting from week 5 until week 12 of age the morphology of the rear ankle joints of the mice were evaluated and scored for signs and symptoms of arthritis. Arthritic scores were assigned as follows. • 0=no arthritis (normal appearance and flexion) • 1=mild arthritis (joint distortion) • 2=moderate arthritis (swelling, joint deformation); and • 3=severe arthritis (ankylosis detected on flexion and severely impaired movement)
Animals were randomized to achieve approximately similar mean arthritic score (MAS) for all groups at week 9 at first signs of symptoms. Animals were then treated i.p. twice a week starting from week 10 of age until week 12 of age. Mice in group 1 served as untreated control were administered PBS.

Dynamic light scattering = format: physicochemical; details: 2 mg/mL in PBS
Description: Samples were centrifuged at 10,000 RPM for 10 minutes before measured on DynaPro-801 Dynamic light scattering system.

EC50 (desired target antigen): > 10000 nM
EC50 [2]: 0.71 nM
B1: DVD163: DVD-Ig construct listed in Table 4 (antibody)
VH: EVQLVQSGAEVKKPGASVKVSCKASGYTFTKYWLGWVRQAPGQGLEWMGDIYPGYDYTHYNEKFKDRVTLTTDTSTSTAYMELRSLRSDDTAVYYCARSDGSSTYWGQGTLVTVSSASTKGPQVQLQESGPGLVKPSETLSLTCTVSGFSLIGYDLNWIRQPPGKGLEWIGIIWGDGTTDYNSAVKSRVTISKDTSKNQFSLKLSSVTAADTAVYYCARGGYWYATSYYFDYWGQGTLVTVSS
VL: DVLMTQTPLSLPVTPGEPASISCTSSQNIVHSNGNTYLEWYLQKPGQSPQLLIYKVSNRFSGVPDRFSGSGSGTDFTLKISRVEAEDVGVYYCFQVSHVPYTFGGGTKVEIKRTVAAPDIQMTQSPSSLSASVGDRVTITCRASQSISNNLNWYQQKPGKAPKLLIYYTSRFHSGVPSRFSGSGSGTDFTFTISSLQPEDIATYYCQQEHTLPYTFGQGTKLEIKR
EC50 ([1]; PGE2 VD in N-terminal position, EP4 bioassay, Ca++ flux, read-out: N-terminal VD PGE2 Neutralization EC50): 0.245 nM

Kd [3]: 0.334 nM
B2: 2B5-8.0: murine anti-PGE2 antibody clone, VH SEQ ID 82, VL SEQ ID 83 (antibody, V domains shown)
VH: QVQLQQSGPELVRPGSSVKISCKASGYTFTKYWLGWVKQRPGHGLEWIGDIYPGYDYTHYNEKFKDKATLTVDTSSSTAYMQLSSLTSEDSAIYYCARSDGSSTYWGQGTLVTVSA
VL: DVLMTQTPLSLPVSLGDQASISCTSSQNIVHSNGNTYLEWYLQRPGQSPKLLIYKVSNRFSGVPDRFSGSGSGTVFTLKISRVEAEDLGVYYCFQVSHVPYTFGGGTKLEIKR
IC50 ([1]; EP4 assay): 0.02 nM
maximal inhibition of paw swelling ([4]; IP 18 hours prior to carrageenan, 4 hours): 40-50%
% Inhibition ([4]; i.p.): 38 ± 4.6%
Δ Paw Swelling ([4]; i.p., 4 hours post carrageenan): 0.529 ± 0.04 mm
effect on disease progression [5]: no significant effect

B3: Hu2B5.7: humanized anti-PGE2 antibody, VH SEQ ID 74, VL SEQ ID 75 (antibody, V domains shown)
VH: EVQLVQSGAEVKKPGASVKVSCKASGYTFTKYWLGWVRQAPGQGLEWMGDIYPGYDYTHYNEKFKDRVTLTTDTSTSTAYMELRSLRSDDTAVYYCARSDGSSTYWGQGTLVTVSS
VL: DVLMTQTPLSLPVTPGEPASISCTSSQNIVHSNGNTYLEWYLQKPGQSPQLLIYKVSNRFSGVPDRFSGSGSGTDFTLKISRVEAEDVGVYYCFQVSHVPYTFGGGTKVEIKR
hydrodynamic radius (Dynamic light scattering): 5.36 nm

Reference: patent publication US8822645B2, “Prostaglandin E2 dual variable domain immunoglobulins and uses thereof” (AbbVie Inc., priority 2008, dated 2014)
